The source of these data is patent US20120003694A1 (SYRACUSE UNIVERSITY, published 2012).

Where two headings read alike, the source gives them in different places.

By kon is commonly meant a measure of how fast the partners come together. In general, koff refers to the rate constant with which the complex falls apart. A high value points to fast dissociation.

Sequences and labels used below:
B1: pb2(65)-Ba (barnase fused to the first 65 amino acids of the N-terminal region of pre-cytochrome b2) (other)
chain: MLKYKPLLKISKNCEAAILRASKTRLNTIRAYGSTVPKSKSFEQDSRKRTQSWTALRVGAILAATAQVINTFDGVADYLQTYHKLPDNYITKSEAQALGWVASKGNLADVAPGKSIGGDIFSNREGKLPGKSGRTWREADINYTSGFRNSDRILYSSDWLIYKTTDHYQTFTKIR
notes: range 1-65;domain: folded ribonuclease barnase (Ba), 110-residue
B2: pb2(35)-Ba (barnase fused to the first 35 amino acids of the N-terminal region of pre-cytochrome b2) (other)
chain: MLKYKPLLKISKNCEAAILRASKTRLNTIRAYGSTAQVINTFDGVADYLQTYHKLPDNYITKSEAQALGWVASKGNLADVAPGKSIGGDIFSNREGKLPGKSGRTWREADINYTSGFRNSDRILYSSDWLIYKTTDHYQTFTKIR
notes: range 1-35;domain: folded ribonuclease barnase (Ba), 110-residue; also called pb2(35)-Ba/35
B3: FhuA ΔC/Δ4L protein nanopore (engineered Escherichia coli ferric hydroxamate uptake component A lacking the cork domain and loops L3, L4, L5 and L11) (other)
chain: LKEVQFKAGTDSLFQTGFDFSDSLDDDGVYSYRLTGLARSANAQQKGSEEQRYAIAPAFTWRPDDKTNFTFLSYFQNEPETGNSEGSTYSRNEKMVGYSFDHEFNDTFTVRQNLRFAENKTSQNSVYGYGVNSEGSYLARKYVVDDEKLQNFSVDTQLQSKFATGDIDHTLLTGVDFMRMRNDINAWFGYNSEGSGPYRILNKQKQTGVYVQDQAQWDKVLVTLGGRYDWADQESLNRVAGTTDKRDDKQFTWRGGVNYLFDNGVTPYFSYSESFEPSSQVGKDGNIFAPSKGKQYEVGVKYVPEDRPIVVTGAVYNLTKTNNLMADPEGSFFSVEGGEIRARGVEIEAKAALSASVNVVGSYTYTDAEYTTDTTYKGNTPAQVPKHMASLWADYTFFDGPLSGLTLGTGGRYTGSSYGDPANSFKVGSYTVVDALVRYDLARVGMAGSNVALHVNNSEGSQVVATATFRF
B4: pb2(95)-Ba (barnase fused to the first 95 amino acids of the N-terminal region of pre-cytochrome b2) (other)
chain: MLKYKPLLKISKNCEAAILRASKTRLNTIRAYGSTVPKSKSFEQDSRKRTQSWTALRVGAILAATSSVAYLNWHNGQIDNEPKLDMNKQKISPAEAQVINTFDGVADYLQTYHKLPDNYITKSEAQALGWVASKGNLADVAPGKSIGGDIFSNREGKLPGKSGRTWREADINYTSGFRNSDRILYSSDWLIYKTTDHYQTFTKIR
notes: range 1-95;domain: folded ribonuclease barnase (Ba), 110-residue

Assay [1] concerns the target B3. Nature of the assay: single-channel recording at a higher applied voltage (+120 mV).
Assay [2] deals with B3. Kind of assay: single-channel recording at a higher applied voltage (+100 mV).
Assay [3] addresses B2. Kind of assay: single-channel electrical recording, planar lipid bilayer, analyte added trans, 1 M KCl, 10 mM potassium phosphate, pH 7.4.
Assay [4] deals with T1, HIV-1 nucleocapsid protein (NCp7) (HIV-1, UniProt P04591 378-432).
T1 construct: domain: nucleocapsid protein (NCp7), 55 amino acids; also called NCp7/55
The assay is described as above.

Assay [5] has as its target B2.

On to B1, for which, in assay [1], the “partition time at +120 mV” value was about 12 ms. Also, in assay [2], the “partition time at +100 mV” value is about 4 ms.

For B2, the “partition time at +120 mV” value in assay [1] was about 12 ms. Moreover, in assay [2], the “partition time at +100 mV” value was about 4 ms.

For B3, the values for the on-rate constant (kon) in assay [3], in assay [4] and in assay [5] were 180000 M⁻¹ s⁻¹, 2e+06 M⁻¹ s⁻¹ and 110000 M⁻¹ s⁻¹, respectively. This molecule registered a koff in assay [4] of 9000 s⁻¹.

Turning to B4, the “partition time at +120 mV” value in assay [1] is about 12 ms. Also, in assay [2], the “partition time at +100 mV” value is about 4 ms.
